Source: the nanobody polyreactivity screen of Harvey et al. (2022)

Test: yeast display, Sf9 membrane polyspecificity reagent, FACS + sequencing; frameworks hold sequencing errors
Summary of the method: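 Synthetic nanobody libraries on Saccharomyces cerevisiae BJ5465 were galactose-induced for 36–48 hours, stained 1 hour at 4 °C with 10% biotinylated, detergent-solubilized Sf9 membrane reagent and enriched on streptavidin microbeads. FACS then separated cells into low and high (top ~1%) gates by anti-HA (expression) and streptavidin (reagent binding) fluorescence. Genes were colony-PCR amplified, MiSeq 2 × 250 sequenced and CDR-length filtered. A clone's polyreactivity label is that of its gate of origin.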

| Sequence | polyreactivity (PSR sort gate) |
| --- | --- |
| QVQLVESGGGLVHAGGSLRLSCAASGSIFFHNAMGWYRQAPGKERELVAAISGGGSTTYADSVKGRFTISRDNAKNTVYLQMNSLKPEDTAVYYCAKSYRYYALHYSPGWYNYWGQGTQVTVSS | high polyreactivity |
| QVQLVESGGGLVQSGGSLRLSCAASGFTFGGYAMGWYRQAPAKERELVAAISQSGGRTYYADSVKGRFTISRDNAKITVYLQMNSLKPEDTAVYYCAKPSTTYYQRGDYWGQGTQVTVSS | high polyreactivity |
| QVQLVESGGGLVQAGGSLRLSCAASGSIFVDYAMGWYRQAPGKERELVAAISWRGGSTYYADSVKGRFTISRDNAKNTVYLQMNSLKPEDTAVYYCAALTPFKYDYWGQGTKVTVSS | low polyreactivity |
| QVQLVESGGGLVQAGGSLRLSCAASVITFGRNTMGWYRQAPGKERELVAAISWNGDSTYYADSVKGRFTISRDNAKNTVYFQMNSLKPEDTAVYFCNADDVFLYQTDGLGDYWGQGTQVTVSS | low polyreactivity |
| QVQLVESGGGLVQAGGSLRLSCAASGSIFRYNTKGWYRQATGKERELDAAINWSGGNTYYADSVKGRFTISRDNAKNTVYLQMNSLKPEDTAVYYCAARWPSYVSYRYYTKYDYWGQGTQVTVSS | high polyreactivity |
| QVQLVESGGGLVQAGCSLRLSCAASGSTLFWYDMGWYRQAPGKERELVAAINWTGGSTYADSVKGRFTISRDNAKNTVYLQMNSLKPEDTAVYYCNADEYWASGYDPYDYWGQGTQVTVSS | low polyreactivity |
| QVQLVESGGGLVQAGGSLRLSCAASGFTFAYAMGWYRQAPGKERELVAAISFSGGSTYYADSVKGRFTISRDNAKNTVYLQMNSLKPEDTAVYYCNKRGGKRSTMDYWGHGTQVTVSS | low polyreactivity |
| QVQLVESGGGLVQAGGSLRLSCAASGSIFSYNVMGWYRPAPGKERELVAAITQSGTSTYYADSVKGRFTISRDNAKNTVYLQMNSLKPEDTAVYYCAVDWYSAYGGYYWSQYDYWGQGTQVTVSS | low polyreactivity |
| QVQLVESGGGLVQAGGSLRLSCAASGFTIERNAMGWYRQAPGKERELVATISQSGTNTYYADSVKGRFTISRDNAKNTVYLQMNSLKPEETAVYYCNARDIFYRYDYWGQGTLVTVSS | low polyreactivity |
| QVQLVESGGGLVQAGGSLRLSCAASGYIFGIYAMGWYRQAPGKERELVAAISTSGGSKYYADSVKGRFTISRDTAKNTVYLQMNSLKPEDTAVYYCAASRPSPRPRYGYWGQGTQVTVSS | high polyreactivity |
| QVQLVESGGGLVQAGGSLRLSCAASGRIFGYYAMGWSRQAPGKEWELVAAISSGGRTYYADSVKGRFTISRDNAKNTVYLQMNSLKPEDTAVYYCAARSRVPPAGPRYDYWGLGTQVTVSS | high polyreactivity |
| QVHLVESGGGLGQAGGSLRLSCAASGIIFRLYAKGWYIPAPGKERELVAAISRRGDSTYYADSVKGRFTISRDNAKNTVYLQMIILKPEDTAVYYCAAERWGDYGYWGQGTQVTVSS | high polyreactivity |
| QVQLVESGVGLVQAGGSLRLSCAASGSIFYPYAMGWYRQAPGKERELVAAISSGGRTYDADSVKGRFTISRDNAKNTVYLQMNSLKPEDTAVSYCAARPKAYGRPPGYYWGQGTQVTVSS | high polyreactivity |
| QVQLVESGGGLVQAGGSLRLSCAASGRTFNGYAMGWYRQAPGKERELVASISRDGSTNYADSVKGRFTISRDNAKNTVYLQMNSLKPEDTAVYYCAADIWYYRYPIYYYSYDYWGQGTQVTVSS | low polyreactivity |
| QVQLVESGGGLVQAGGSLRLSCAASGFIFWENAMGWSRQAPGKERELVAAISKSGTRTYYADSVKGRFTISRDNAKNTVYLQMNSLKPEDTAVYYCAAEGSGYEYYYWGQGTQVTVSS | high polyreactivity |
| QVQLVESGGGLVQAGGSLRLSCAASGRTFGYYAMGWYRQAPGKERELVAAISWRGGSTYYADSVKGRFTISRDNAKNTVYLQMNSLKPEDTAVYYCNRAYVYPQGPYPYDYWGQGTQVTVSS | high polyreactivity |
| QVQLVESGGCLVQAGGSLRLSCAASGRNIAYNAMGWSRQAPGKERELVASISSGGSTFYADSVKGRFTISRDNAKNTVYLQMNSLKPEDTAVYYCAKGGYWGQGTQVSVSS | high polyreactivity |
| HVQLVESGGGLVQAGGSLRLSCAASGLTFTRYTMGWSRQAPGKERELVAAITSSGGSTYYADSVKGRFTISRDNAKNTVYLQMNSLKPEDTAVYDCAARTGYGYGARRTLKSRYDYWGQGTQVTVSS | high polyreactivity |
| QVQLVESGGGLVQAGGSLRLSCAASGGIFAYYGMGWYRQAPGKERELVAAIWIGGNTYYADSVKGRFTISRDNAKNTVYLQMNSLKPVDTAVYYCATEGFVYSWLWEFEYWGQGTQVTVSS | low polyreactivity |
| QVQLVESGGGLVQAGGSRRLSCAPSGKIFGSNAMGSYRQAPGKERELVAAISKSCGRTYYADSVKGRFTISRDNAKNTVYLQMNCLKPEDSAVYYCGAYDGYYEFDYWGQGTQVPVSS | low polyreactivity |
| QDQLVESGGGLVQAGGSLRLSCAASASIFNVNTMGWYRQAPGKERELVAAISYSGGSTYYADSVKGRFTISRDIAKNTVYLQMISLKPEDTAFYYCNVSPTTTVDGGGYDSWGQGTQVTVSS | low polyreactivity |
| QVQLVESGGGLVQAGGTLRLSCAASGGIFVANAMGWYRQAPGKERELVAAISRSGGSTYYADSVKGRFTISRDNAKNTVYLQMNSLKPEDTAVYYCAAKSRRQYTVGLTSDYWGQGTQVTVSS | high polyreactivity |

| Sequence | polyreactivity (PSR sort gate) |
| --- | --- |
| QVQLVESGGGLVQAGGSLRLSCAASGSTFWNYAMGWYRQAPGKERELVAAISQRGGSTYYADSVKGRFTISRDNAKNTVYLQMNSLKPEDTAVYYCNIDYAGELDYWGQGTQVTVSS | high polyreactivity |
| QVQLVESGGGLVQAGGSLRLSCAASGRTFSHYAMGWYRQAPGKERELVAAINTRTGTTYYADSVKGRFTISRDNAKNTVYLQMNSLKPEDTAVYYCNAVPYYSYQGWILVGDYDYWGQGTQVTVSS | low polyreactivity |
| QVQLVESGGGLVQAGGSLRLRCAASGRTFKPYVMGWNRQAPGKERELVAAISSRGGSTYYADSVKGRFTISRDNAKNTFYLQMNSLKPEDTAVYYCNAAYWFSNKYGYWGQGTQVTVAS | high polyreactivity |
| QVQPVESGGGLVQAGGSLRLSCAASGRTFWYYTMGWYRQAPGKERELVAAITSVGSTYYADSVKGRFTISRDNAKNTVYLQMNSLKPEDTAVYYCAKLYSYTHQSFDHWGQGTQVTVSS | high polyreactivity |
| QVQLVESGGGLVQAGGSLRLSCAASGRTFTSNGMGWYRQAPGKERELVAAITSGTSTYYADSVKGRFTISRDNAKNTVYLQMNSLKPEDTAVYYCNKLVPRGSSYSTVIRGGGYWGQGTQVTVSS | high polyreactivity |
| HDQLVESGGGLVQAGGSLRLSCAASGFTFYRNAMGWYRQAPGQERELVAAITRGGSTTYADSVKGRFTISRANAKNTVYLQMISLKPDDTAVYYSAKVARADVPGYYKYYYWGQGTQVTVSS | high polyreactivity |
| QVQLVESGGGLVQAGGSLRLTCAASGSTFSYYAMGCYRQAPGKERELVAAISTRGSSTYYADSVKGRFTISRDNAKITVYVQMNSLKPEDTAVYYFAVDQYKYDCFYDYYGYTYGYWGQGTQVTVSS | high polyreactivity |
| QVQLVESGGGLVQAGGSLRLSCAASGGIFFIYAMGWYRQAPGKERELVAAISWGGGSTYYADSVKGRFTISRDNAKNTFYLQMNSLKPEDTAVYYCAARLYGRGYYYWGQGTQVTVSS | high polyreactivity |
| QVHIVESGGRLFQAGGSLRLSCAASGFTFAYYAMGWYRQAPGKEREMVAAISRGGTSTYYADSVKGRFTISRDNATNPVYLQMNSLKPEDTAVFYCNAVKVGYSLYDFWGQGTQVTVSS | high polyreactivity |
| QVQLVESGGGLVQAGGSLRLSCAASGRIFARYAMGWYRQAPGKERELVAAISRGGSTKYADSVKGRFTISRDNAKNTVYLQMNSLKPEDTAVYYCARQLWGSPYGAYYAGDYWGQGTQVTVSS | low polyreactivity |
| QVHLVESGGGIVQAGGSLRLSCAASGSIFKKNAMGWSRQAPGKERELVAAITLSSSDTYYADSVKGRFTISRDNAKNTVYLQMNSLKPEDTAVYYCAAKRTRDMDYWGQGTQVTVSS | high polyreactivity |
| QVQLVESGGGLVQAGGSLRLSCAASGRIFGYYAMGWYRQAPGKERELVAAITWSGGTYYADSVKGRFTISRDNAKNTVYLQMNSLKPEDTAVYYCAKSVRNGWQSRFGYWGQGTQVTVSS | high polyreactivity |
| QVQLVESGGGLVQAGGSLRLSCAASGRTFTGSVMGWYRKAPGKERELVAAISWNGGRTYYADSVKGRFTLSRDNAKNTVYLQMYSLKPEDTGVYLCGTYGYNSYDYWGHGTQVTVSS | high polyreactivity |
| QVQLVESGGGLVQAGGSLRLSCAASGRTFNIYAMGWYRQAPGKERELVAAITFTGGNTYYADSVKGRFTISRDNAKNTVYLQMNSLKPEDTAVYYCNKRLKWRSYDYWGQGTQVTVSS | low polyreactivity |
| QVQLVESGGGLVQAGGSLRLSCAASGSIFSPNAMGWYRQAPGKERELVAGISWSGDGTYYADSVKGRFTISRDNAKNTVYLQMNSLKPEDTAVYYCAARFGRYSHRYYYWGQGTQVTVSS | high polyreactivity |
| QVQIVESGGGLVQAGGSLRLSCPASGSTFSRYAMGWYRQAPGKERELVAAISWSGGRTYYADSVKGRFTISRDYATNTVYLLMNSLKPEDTAVYYCAARKLVVILREEYWVQGTQVTVSS | high polyreactivity |
| QVQLVESGGALVQAGGSLRLSCAASGRIFRSYVMGWYRQAPGKERELVATITGGGRTNYADSVKGRFTISRDNAKNTVYLQMTSLKPEDTAVYYCAGVYRWWPFHAFDYWGQGTQVTVSS | high polyreactivity |
| QVQLVESCGGLVQAGGSLRLSCAASGSTFYRYAMGWYRQAPGKERELVARITRTGGITNYADSVKGRFTISRDNAKNTVYLQMNSLKPEDTAVYDCAKTNIRDHYYWGQGTQVTVSS | high polyreactivity |
| QVQLVESGGGLVQAGGSLRLSCAASGLTFERYAMGWYRQAPGKERELVADITWSGGRTYYADSVKGRFTISRDNAKNTVYLQMNSLKPEDTAVYYCAADVYPGYVGSQEYDYWGQGTQVTVSS | low polyreactivity |
| QVQLVESGGGLVQAGGSLRLSCAASGSTFGYYTKGWYRQAPGKERELVAAITWSGGSTYYADSVKGRFTISRDNAKNTVYLQMNSLKPEDTAVYYCAADDYWTPFGYWGQGTQVTVSS | low polyreactivity |
| QVQLVESGGGLFQAGGSLRLSCAASGIIFYYNTMGWYRQAPGKDRELVAAISQRGRSTYYADSVKGRFTISRDNAKNTVYFHLNSLKPEDTAVFYCNKLRNSHGFRYDYWGQGTQVTVSS | high polyreactivity |
